Test [1] has as its target T1, rhesus CD11a (rhesus, UniProt H9Z8N3 26-1169).
T1 construct: whole, on cells; also called rhCD11a
T1 sequence: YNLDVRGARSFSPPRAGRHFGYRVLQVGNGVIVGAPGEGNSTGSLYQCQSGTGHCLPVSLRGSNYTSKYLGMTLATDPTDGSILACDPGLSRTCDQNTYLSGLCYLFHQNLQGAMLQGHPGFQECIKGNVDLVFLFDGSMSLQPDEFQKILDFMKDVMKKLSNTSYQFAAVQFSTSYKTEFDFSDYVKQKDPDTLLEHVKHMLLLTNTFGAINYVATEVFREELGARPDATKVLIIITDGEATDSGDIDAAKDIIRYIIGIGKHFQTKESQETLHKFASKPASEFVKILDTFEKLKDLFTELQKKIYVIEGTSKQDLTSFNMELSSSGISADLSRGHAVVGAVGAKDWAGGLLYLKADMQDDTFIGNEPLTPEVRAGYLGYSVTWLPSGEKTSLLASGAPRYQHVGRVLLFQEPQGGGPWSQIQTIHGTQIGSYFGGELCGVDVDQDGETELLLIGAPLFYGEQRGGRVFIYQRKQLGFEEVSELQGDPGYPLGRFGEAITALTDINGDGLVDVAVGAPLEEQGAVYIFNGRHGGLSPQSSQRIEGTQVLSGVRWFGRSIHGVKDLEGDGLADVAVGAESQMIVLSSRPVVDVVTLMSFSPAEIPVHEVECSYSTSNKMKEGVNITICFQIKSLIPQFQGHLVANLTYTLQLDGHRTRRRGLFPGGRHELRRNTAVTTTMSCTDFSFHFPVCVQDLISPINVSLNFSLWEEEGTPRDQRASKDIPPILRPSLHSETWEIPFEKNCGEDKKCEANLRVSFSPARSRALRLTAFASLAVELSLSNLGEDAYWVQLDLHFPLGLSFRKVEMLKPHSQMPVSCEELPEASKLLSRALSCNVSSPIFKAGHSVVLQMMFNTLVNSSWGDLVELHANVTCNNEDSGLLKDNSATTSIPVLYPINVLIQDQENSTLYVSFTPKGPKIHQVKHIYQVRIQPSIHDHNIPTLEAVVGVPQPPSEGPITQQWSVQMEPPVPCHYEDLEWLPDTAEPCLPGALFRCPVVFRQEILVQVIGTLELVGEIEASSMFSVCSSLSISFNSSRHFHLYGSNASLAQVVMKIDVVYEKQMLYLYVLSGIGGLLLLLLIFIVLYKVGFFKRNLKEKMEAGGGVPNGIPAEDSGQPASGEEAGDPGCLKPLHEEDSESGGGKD
The test can be described thus: blocking of rhesus lymphocyte adhesion to recombinant human ICAM-1 on plates.

Test [2] deals with T2, rhesus-human chimeric CD11a (human CD11a with a rhesus I-domain) (human, UniProt P20701 26-1170).
T2 construct: whole, on cells; also called Rh/HuCD11a
T2 sequence (looked up): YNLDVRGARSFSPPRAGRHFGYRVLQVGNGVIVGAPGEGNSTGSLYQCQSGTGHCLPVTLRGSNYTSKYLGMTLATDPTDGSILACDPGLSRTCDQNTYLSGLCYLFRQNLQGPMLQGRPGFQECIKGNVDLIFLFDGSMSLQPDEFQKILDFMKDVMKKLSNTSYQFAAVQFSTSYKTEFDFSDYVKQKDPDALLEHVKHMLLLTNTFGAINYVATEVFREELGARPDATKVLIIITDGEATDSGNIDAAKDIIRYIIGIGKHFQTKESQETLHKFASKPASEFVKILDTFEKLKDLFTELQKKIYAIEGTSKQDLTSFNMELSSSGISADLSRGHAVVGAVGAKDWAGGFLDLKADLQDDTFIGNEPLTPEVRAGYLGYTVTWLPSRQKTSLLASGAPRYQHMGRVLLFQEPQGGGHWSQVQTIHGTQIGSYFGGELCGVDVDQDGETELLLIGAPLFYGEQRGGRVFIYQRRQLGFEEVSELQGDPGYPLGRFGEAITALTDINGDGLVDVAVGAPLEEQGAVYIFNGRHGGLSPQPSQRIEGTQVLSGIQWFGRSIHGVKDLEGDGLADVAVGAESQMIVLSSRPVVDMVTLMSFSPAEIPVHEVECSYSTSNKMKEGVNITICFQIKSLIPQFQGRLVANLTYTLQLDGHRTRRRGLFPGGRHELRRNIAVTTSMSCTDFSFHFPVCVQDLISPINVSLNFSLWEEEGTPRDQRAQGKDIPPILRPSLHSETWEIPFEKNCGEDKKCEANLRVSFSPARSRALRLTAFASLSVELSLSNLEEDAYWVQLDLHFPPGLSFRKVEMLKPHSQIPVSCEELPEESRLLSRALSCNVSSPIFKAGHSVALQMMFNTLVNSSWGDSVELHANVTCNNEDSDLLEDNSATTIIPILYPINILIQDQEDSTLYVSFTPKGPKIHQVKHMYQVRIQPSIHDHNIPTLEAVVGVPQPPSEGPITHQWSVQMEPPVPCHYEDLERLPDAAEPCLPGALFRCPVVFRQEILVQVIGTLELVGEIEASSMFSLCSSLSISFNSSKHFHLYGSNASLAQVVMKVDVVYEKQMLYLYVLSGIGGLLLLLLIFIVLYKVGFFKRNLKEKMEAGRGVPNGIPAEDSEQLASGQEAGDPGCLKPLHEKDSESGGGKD
As to the kind of experiment: blocking of adhesion of Rh/HuCD11a-transfected 293 cells to human keratinocytes.

For test [3], the target named is T1, rhesus CD11a. The test can be described thus: cell binding, rhesus CD11a.
Test [4] deals with T1, rhesus CD11a. As to the kind of experiment: blocking of rhesus lymphocyte adhesion to human keratinocytes.
In test [5] the target is T1, rhesus CD11a. As to the kind of experiment: saturation binding, Kd(app).
The target in test [6] is T1, rhesus CD11a. The test can be described thus: cell-based or functional assay.
Test [7] deals with T1, rhesus CD11a. The test can be described thus: blocking of rhesus lymphocyte adhesion to human keratinocytes. This is another data set of the same source.
Test [8] concerns the target T2, rhesus-human chimeric CD11a (human …). As to the kind of experiment: blocking of adhesion of Rh/HuCD11a-293 cells to human keratinocytes.
The target of test [9] is T1, rhesus CD11a. The test can be described thus: blocking of rhesus lymphocyte adhesion to recombinant human ICAM-1 on plates. The source holds these as a separate data set.

B1: rhesus-binding MHM24 IgG1 (rhesusized antibody mutant) (antibody, V domains shown)
VH: EVQLVESGGGLVQPGGSLRLSCAASGYSFTGHWMNWVRQAPGKGLEWVGMIAPASSSTRYNQKFKDRFTISVDKSKNTLYLQMNSLRAEDTAVYYCARGIYFYGTTYFDYWGQGTLVTVSS
VL: DIQMTQSPSSLSASVGDRVTITCRASKTISKYLAWYQQKPGKAPKLLIYSGSTLQSGVPSRFSGSGSGTDFTLTISSLQPEDFATYYCQQHNEYPLTFGQGTKVEIKR
Regarding B1, the “fold less efficacious than MHM23” value amounted to 4 fold in the test with rhesus CD11a [1] and 74 fold with rhesus CD11a [7]. In addition, the IC50 in test [2] amounted to 4.9 nM; with rhesus CD11a [4], 119 nM; in the test with rhesus CD11a [9] it was 5.3 nM. In addition, the “fold improvement over the EC50 of HuIgG1 for rhesus CD11a” value with rhesus CD11a [3] lay in the range of 240 to 415 fold. The “fold weaker than the EC50 of HuIgG1 for human CD11a” value in the test with rhesus CD11a [3] lay in the range of 3 to 5 fold. For the same molecule, in the test with rhesus CD11a [5], the “fold down of Kd from the Kd of HuIgG1 for human CD11a” value was approximately 26 fold. The “IC50, rhesus mixed lymphocyte response (MLR)” value with rhesus CD11a [6] was determined as 23.4 nM. Further, the “fold down from MHM23” value in test [8] is 4 fold.

As usually defined, the IC50 is the midpoint of a concentration-inhibition curve.

Values taken from patent EP0946727B1 (GENENTECH, INC., dated 2007).
